Assay results from US20250368745A1 (published 2025).
Changes are numbered by the printed parent chain. Where “and” joins values, the source holds several entries; their conditions need not be identical. Equal entries are not always repeated. Where two headings read alike, the source gives them in different places.

Assays:
[1] = biological target: T1, human IL-18BP (interleukin-18 binding protein, isoform A) (human, UniProt O95998 31-194); experiment: BLI (Octet), mAb on AHC biosensor
T1 construct: cell assays used Sino Biological 10357-H08H; PBMC assay 1 relies on endogenous IL-18BP; UniProt number is printed as 095998; also called hIL-18BP
T1 sequence: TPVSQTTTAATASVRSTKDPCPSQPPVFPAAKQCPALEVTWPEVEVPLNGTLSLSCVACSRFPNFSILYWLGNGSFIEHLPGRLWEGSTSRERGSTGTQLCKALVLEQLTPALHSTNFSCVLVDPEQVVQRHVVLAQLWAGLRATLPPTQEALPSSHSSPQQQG

cynomolgus IL-18BP [2] = biological target: T2, cynomolgus IL-18BP (cynomolgus monkey); experiment: BLI (Octet), mAb on AHC biosensor
T2 construct: Generated in-house; also called cyIL-18BP; cyno IL-18BP
T2 chain: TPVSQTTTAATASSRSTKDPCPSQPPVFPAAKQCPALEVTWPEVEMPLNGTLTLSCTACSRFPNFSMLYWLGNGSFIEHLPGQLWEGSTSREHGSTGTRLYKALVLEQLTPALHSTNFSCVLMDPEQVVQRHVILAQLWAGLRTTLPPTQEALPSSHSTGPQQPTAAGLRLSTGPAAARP

[3] = biological target: T1, human IL-18BP (interleukin-18 binding …); experiment: cell-based or functional assay
[4] = biological target: hypo-IL-18 (IL-18 tethered to IL-18BP by a flexible linker with TEV site, 6xHis) (human); experiment: BLI
[5] = biological target: T1, human IL-18BP (interleukin-18 binding …); experiment: cell-based or functional assay; remark: listed apart in the source
[6] = biological target: T1, human IL-18BP (interleukin-18 binding …); experiment: BLI (Octet), mAb on AHC biosensor; remark: listed apart in the source
cynomolgus IL-18BP [7] = biological target: T2, cynomolgus IL-18BP; experiment: BLI (Octet), mAb on AHC biosensor
cynomolgus IL-18BP [8] = biological target: T2, cynomolgus IL-18BP; experiment: ratio of BLI KDs for cyno and human IL-18BP
[9] = biological target: T1, human IL-18BP (interleukin-18 binding …); experiment: BLI (Octet), mAb on AHC biosensor; remark: listed apart in the source
cynomolgus IL-18BP [10] = biological target: T2, cynomolgus IL-18BP; experiment: BLI (Octet), mAb on AHC biosensor
[11] = biological target: T1, human IL-18BP (interleukin-18 binding …); experiment: cell-based or functional assay; remark: listed apart in the source
cynomolgus IL-18BP [12] = biological target: T2, cynomolgus IL-18BP; experiment: ratio of BLI KDs, cyno against human IL-18BP
[13] = biological target: T1, human IL-18BP (interleukin-18 binding …); experiment: BLI (Octet), mAb on AHC biosensor; remark: listed apart in the source
cynomolgus IL-18BP [14] = biological target: T2, cynomolgus IL-18BP; experiment: BLI (Octet), mAb on AHC biosensor
[15] = biological target: T1, human IL-18BP (interleukin-18 binding …); experiment: BLI single-concentration screen, apparent KD
cynomolgus IL-18BP [16] = biological target: T2, cynomolgus IL-18BP; experiment: BLI single-concentration screen, apparent KD
mouse IL-18BP [17] = biological target: T3, mouse IL-18BP (mouse, UniProt Q9Z0M9 29-193); experiment: BLI (Octet), mAb on AHC biosensor
T3 construct: also called mIL-18BP
T3 sequence: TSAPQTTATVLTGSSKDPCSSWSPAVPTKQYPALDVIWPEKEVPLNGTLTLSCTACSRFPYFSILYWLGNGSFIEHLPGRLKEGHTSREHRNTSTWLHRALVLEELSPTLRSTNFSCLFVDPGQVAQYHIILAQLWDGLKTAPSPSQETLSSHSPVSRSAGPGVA

[18] = biological target: T1, human IL-18BP (interleukin-18 binding …); experiment: BLI (Octet), mAb on AHC biosensor; remark: listed apart in the source
cynomolgus IL-18BP [19] = biological target: T2, cynomolgus IL-18BP; experiment: BLI (Octet), mAb on AHC biosensor
mouse IL-18BP [20] = biological target: T3, mouse IL-18BP; experiment: BLI (Octet), mAb on AHC biosensor; remark: listed apart in the source
mouse IL-18BP [21] = biological target: T3, mouse IL-18BP; experiment: BLI (Octet), mAb on AHC biosensor; remark: listed apart in the source
mouse IL-18BP [22] = biological target: T3, mouse IL-18BP; experiment: BLI (Octet), mAb on AHC biosensor; remark: listed apart in the source

Sequence of hypo-IL-18 (IL-18 tethered to IL-18BP by a flexible linker with TEV site, 6xHis) (human) (chain, as listed by the source limits assumed): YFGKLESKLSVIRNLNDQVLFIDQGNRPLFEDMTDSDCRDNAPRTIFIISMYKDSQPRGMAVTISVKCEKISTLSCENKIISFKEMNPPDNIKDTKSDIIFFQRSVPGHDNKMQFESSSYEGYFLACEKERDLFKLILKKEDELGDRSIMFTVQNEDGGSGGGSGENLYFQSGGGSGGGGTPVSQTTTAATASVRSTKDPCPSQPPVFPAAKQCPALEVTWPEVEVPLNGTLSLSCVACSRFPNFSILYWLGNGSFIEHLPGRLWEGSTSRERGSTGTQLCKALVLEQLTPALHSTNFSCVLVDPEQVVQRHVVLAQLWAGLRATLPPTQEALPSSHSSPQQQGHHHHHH

B1: SA04a (antibody, human IgG1, V domains shown)
VH: QIQFVQSGPEVKTPGETVKISCKASVYTFTEYPMHWLKQAPGEDFEWMGWIHTYSGEPTYADDFKGRFAFSLETSASTAYLQINNLKTEDTATYFCARGRYYGALDYWGQGTALT
VL: DIQMTQTPSSLSASLGDRVTISCRASQDISNYLNWYQQKPDGTVKLLIYYTSRLHSGVPSRFSGSGSGTDYSLTISNLEQEDVATYFCQHGNTLPRTFGGGTKLEIK
notes: murine variable regions on human IgG1 kappa constant regions
[1]
  Kd: 0.26 nM
Cynomolgus IL-18BP [2]
  Kd: 1.5 nM
[3]
  EC50 (nM), KG-1 Assay (IFNγ): 2.6 nM
[4]
  binding result: no binding
[5]
  EC50 (nM), HEK293 IL-18 Reporter Assay (SEAP): 0.1 nM
[6]
  Kd: 0.26 nM
Cynomolgus IL-18BP [7]
  Kd: 1.5 nM
Cynomolgus IL-18BP [8]
  Human/Cyno Fold Difference: 5.8 fold
[9]
  Kd: 0.25 nM
Cynomolgus IL-18BP [10]
  Kd: 0.67 nM

B2: SA34a (antibody, human IgG1, V domains shown)
VH: QVQLQQSGAELARPGASVKLSCKASGYTFTDYYINWVKQRTGQGLEWIGEIYPGSGNTYYNEKFKGKATLTADKSSSTAYMQLSSLTSEDSAVYFCARGYYGRFAYWGQGTLVTVSA
VL: DIVMTQAAFSNPVTLGTSASISCRSSKSLLHSNGITYLYWYLQKPGQSPQLLIYQMSNLASGVPDRFSSSGSGTDFTLRISRVEAEDVGVYYCDQNLELPFTFGSGTKLEIK
notes: as for B1
[3]
  EC50 (nM), KG-1 Assay (IFNγ): 51 nM
[4]
  binding result: no binding
[5]
  EC50 (nM), HEK293 IL-18 Reporter Assay (SEAP): 5.02 nM
[9]
  Kd: 18 nM
Cynomolgus IL-18BP [10]
  Kd: 12 nM

B3: SA35a (antibody, human IgG1, V domains shown)
VH: QVQLQQSGAELVRPGVSVKISCKGSGYTFTDYPMHWVKQSHAKSLEWIGVISTYYGDASYNQKFKGKATMTVDKSSSTAYMELARLTSEDSAIYYCARWRGSFDYWGQGTTLTVSS
VL: ENVLTQSPAIMSASPGEKVTMTCRASSSVSSSYLHWYQQKSGASPKLWIYSTSNLASGVPARFSGSGSGTSYSLTISSVEAEDAATYYCQQYSGYHTFGGGTKLEIK
notes: as for B1
[3]
  EC50 (nM), KG-1 Assay (IFNγ): 103 nM
[4]
  binding result: no binding
[5]
  EC50 (nM), HEK293 IL-18 Reporter Assay (SEAP): 21 nM
[9]
  Kd: 11 nM
Cynomolgus IL-18BP [10]
  Kd: 13 nM

B4: SA301a (antibody, human IgG1, V domains shown)
VH: QVQLQESGPGLVKPSQTLSLTCTVSGYSITSDYNSHWIRQPPGKGLEWIGYIHYSGSTNYNPSLKSRVTISRDTSKNQFSLKLSSVTAADTAVYYCARNYGSIYVNYFDYWGQGTLVTVSS
VL: EIVLTQSPATLSLSPGERATLSCSASSSVSYMYWYQQKPGQAPRPLIYRTSNLASGIPARFSGSGSGTDFTLTISSLEPEDFAVYYCQQYHSYPTFGGGTKVEIK
notes: humanized; human IgG1 (suffix a), kappa; also called humanized SA44a
[11]
  EC50 in PBMC Assay 1 (endogenous IL-18BP), IFNγ: 2 nM
Cynomolgus IL-18BP [12]
  Cyno/human: 0.47 ratio
[3]
  EC50 (nM), KG-1 Assay (IFNγ): 1.3 nM
[13]
  Kd: 0.217 nM
Cynomolgus IL-18BP [14]
  Kd: 0.102 nM
[15]
  Kd: 0.2 nM and 0.3 nM
Cynomolgus IL-18BP [16]
  Kd: 0.1 nM and 0.2 nM
Mouse IL-18BP [17]
  binding result: no binding
[18]
  Kd: 0.162 nM
Cynomolgus IL-18BP [19]
  Kd: 0.078 nM

B5: SA31a (antibody, human IgG1, V domains shown)
VH: QVQLQQPGSELVRPGASVKLSCKASGYTFTSYWMHWVKQRPGQGLEWIGNIYPGSGNTIYDEKFKSKATLTVDTSSSTAYMQLSSLTSEDSAVYYCTRWDNWEGYYFDYWGQGTTLTVSS
VL: B2 VL with D94A, F101W, S105G
notes: as for B1
[3]
  EC50 (nM), KG-1 Assay (IFNγ): 185 nM
[4]
  binding result: no binding
[5]
  EC50 (nM), HEK293 IL-18 Reporter Assay (SEAP): 2.62 nM
[9]
  Kd: 3 nM
Cynomolgus IL-18BP [10]
  Kd: 5 nM

B6: SA44a (antibody, human IgG1, V domains shown)
VH: DVQLQESGPDLVKPSQSLSLTCTVTGYSITSDYNCHWIRQFPGNKLEWMGYIHYSGSTNYNPSLKSRISITRDTSKNQFFLQLNSVTAEDTATYYCARNYGSIYVNYFDYWGQGTTLTVSS
VL: QIVLTQSPAIMSASPGEKVTISCSASSSVSYMYWYQQEPGSSPKPWIYRTSNLASGVPPRFSGSGSGTSYSLTISSMEAEDAATYFCQQYHSYPTFGGGTKLEIK
notes: as for B1
Mouse IL-18BP [20]
  binding result: no binding
[1]
  Kd: 0.688 nM
Cynomolgus IL-18BP [2]
  Kd: 0.525 nM
Cynomolgus IL-18BP [12]
  Cyno/human: 0.76 ratio
[4]
  binding result: no binding
[13]
  Kd: 0.685 nM
Cynomolgus IL-18BP [14]
  Kd: 0.524 nM
Cynomolgus IL-18BP [8]
  Human/Cyno Fold Difference: 1 fold
[9]
  Kd: 0.51 nM
Cynomolgus IL-18BP [10]
  Kd: 0.67 nM
[18]
  Kd: 0.688 nM
Cynomolgus IL-18BP [19]
  Kd: 0.525 nM

B7: SA50a (antibody, human IgG1, V domains shown)
VH: QVQLVQSGSELKKPGASVKVSCKASVYTFTEYPMHWLRQAPGQGFEWMGWIHTYSGEPTYADDFKGRFVFSLDTSVSTAYLQISSLKAEDTAVYFCARGRYYGALDYWGQGTALTVSS
VL: DIQMTQSPSSLSASVGDRVTITCRASQDISNYLNWYQQKPGKAVKLLIYYTSRLHSGVPSRFSGSGSGTDYTFTISSLQPEDIATYFCQHGNTLPRTFGGGTKLEIK
notes: humanized; human IgG1 (suffix a), kappa; also called humanized SA04a
Mouse IL-18BP [21]
  binding result: no binding
[6]
  Kd: 0.41 nM
Cynomolgus IL-18BP [7]
  Kd: 4.27 nM

B8: SA07a (antibody, human IgG1, V domains shown)
VH: EVQLQQSGPELVKPGASVKISCKASGYTFTDYYMNWVKQSHGKSLEWIGDINPNNGGTSYNQKFKGKATLTVDKSSNTAYMELRSLTSEDSAVYYCAREGVYSNYGGYFDYWGQGTTLTVSS
VL: QIVLTQSPALMSASPGEKVTMTCSASSSVSYMYWYQQKPRSSPKPWIYLTSNLASGVPARFSGSGSGTSYSLTISSMEAEDAATYYCQQWSSNPPTFGSGTKLEIK
notes: as for B1
Mouse IL-18BP [22]
  binding result: no binding
